Reference: article PMC4505944, “The THERMOSENSITIVE MALE STERILE 1 Interacts with the BiPs via DnaJ Domain and Stimulates Their ATPase Enzyme Activities in Arabidopsis” (PLoS ONE, 2015)

Experiments:
[1] = biological target: T1, BiP3 without signal peptide, His-tagged (Arabidopsis thaliana, UniProt Q8H1B3 36-675); assay: pull-down; 30 μg GST fusion or GST on Glutathione Sepharose 4B beads; 30 μg purified BiP1 or BiP3 with 1 mM ATP in 1 mL binding buffer (20 mM Hepes pH 6.8, 100 mM KCl, 5 mM MgCl2, 0.1% NP-40, 2% glycerol, 1 mM DTT, 1 mM EDTA), 4°C, 2 h; anti-His blot; settings: both partners purified
T1 construct: full-length CDS without the signal peptide; Cloned into pET30a(+) (EcoRI/XhoI); further vector-derived residues between the tag and BiP3 are likely; also called BiP3-His; source: E. coli BL21, purified, dialyzed; not shown: His6, N-terminal, kept

[2] = biological target: T2, BiP1 without signal peptide, His-tagged (Arabidopsis thaliana, UniProt Q9LKR3 28-669); assay: as above; settings: both partners purified
T2 construct: full-length CDS without the signal peptide; Cloned into pET30a(+) (EcoRI/XhoI); further vector-derived residues between the tag and BiP1 are likely; also called BiP1-His; source: E. coli BL21, purified, dialyzed; not shown: His6, N-terminal, kept
T2 sequence (Q9LKR3 28-669): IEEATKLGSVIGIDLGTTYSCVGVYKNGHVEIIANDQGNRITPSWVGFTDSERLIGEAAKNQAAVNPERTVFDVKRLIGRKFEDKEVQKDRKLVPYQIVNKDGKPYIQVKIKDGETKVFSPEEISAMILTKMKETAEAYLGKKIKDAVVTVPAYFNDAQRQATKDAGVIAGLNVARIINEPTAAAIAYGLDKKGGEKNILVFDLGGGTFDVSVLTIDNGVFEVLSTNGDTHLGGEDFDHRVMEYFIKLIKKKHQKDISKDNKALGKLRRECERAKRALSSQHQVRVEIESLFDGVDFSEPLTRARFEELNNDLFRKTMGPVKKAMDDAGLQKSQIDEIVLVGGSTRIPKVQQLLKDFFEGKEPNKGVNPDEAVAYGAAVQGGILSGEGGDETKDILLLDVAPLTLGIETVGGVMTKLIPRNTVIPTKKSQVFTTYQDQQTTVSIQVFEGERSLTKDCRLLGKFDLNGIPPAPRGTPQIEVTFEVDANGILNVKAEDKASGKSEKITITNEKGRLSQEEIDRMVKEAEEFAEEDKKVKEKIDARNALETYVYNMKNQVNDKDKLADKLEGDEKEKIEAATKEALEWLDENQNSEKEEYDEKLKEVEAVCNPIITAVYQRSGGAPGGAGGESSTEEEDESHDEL

T1 sequence (Q8H1B3 36-675): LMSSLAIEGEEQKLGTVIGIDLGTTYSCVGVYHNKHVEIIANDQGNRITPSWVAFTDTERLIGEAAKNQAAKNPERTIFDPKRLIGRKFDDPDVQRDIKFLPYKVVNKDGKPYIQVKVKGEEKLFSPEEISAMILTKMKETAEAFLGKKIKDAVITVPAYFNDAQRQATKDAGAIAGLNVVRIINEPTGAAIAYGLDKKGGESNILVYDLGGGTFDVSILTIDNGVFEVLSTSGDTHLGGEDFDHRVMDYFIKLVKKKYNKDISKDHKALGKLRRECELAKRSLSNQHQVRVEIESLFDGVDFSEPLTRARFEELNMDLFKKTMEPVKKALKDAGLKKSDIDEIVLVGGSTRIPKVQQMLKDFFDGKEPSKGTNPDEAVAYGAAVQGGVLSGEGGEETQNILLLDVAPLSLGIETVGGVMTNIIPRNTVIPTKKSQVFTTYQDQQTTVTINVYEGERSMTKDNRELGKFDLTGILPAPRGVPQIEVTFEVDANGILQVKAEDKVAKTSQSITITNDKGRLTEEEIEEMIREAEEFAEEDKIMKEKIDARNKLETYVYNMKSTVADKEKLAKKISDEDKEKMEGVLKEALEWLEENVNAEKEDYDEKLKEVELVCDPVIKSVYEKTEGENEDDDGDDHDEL

binding result [1]: binds
binding result [2]: binds
B1: recombinant TMS1 DnaJ domain with a GST tag (domain or fragment, Arabidopsis thaliana, UniProt Q9SR96 27-80, looked up)
chain: DPYKVLGVSKDAKQREIQKAFHKQSLKYHPDKNKDKGAQEKFAEINNAYEILSD
notes: DnaJ domain of TMS1 (AtERdj3A), Arabidopsis thaliana, 54 amino acid residues, 27-80 aa in TMS1; Cloned into pGEX4T-1 (EcoRI/XhoI); also called GST-DnaJ; source: E. coli BL21, purified, dialyzed
